Laboratory results taken from PMC4690985.

What was measured:
[1] = target: Toyocamycin nitrile hydratase (TNH) α subunit (Streptomyces rimosus) (UniProt B6CWJ3); assay: native MS
[2] = target: TNH αβγ trimer (Streptomyces rimosus) (UniProt B6CWJ3); assay: native MS

## Toyocamycin nitrile hydratase (TNH) β subunit (natural protein)
[1]
  abundance of the αβ dimer among the SID products (αβγ trimer = 100%): 32%

## TNH αβγ trimer (from UniProt B6CWJ3 1-195) (complex)
[2]
  stoichiometry N: 2
